Assay results reported in patent US20200087373A1 (UNIVERSITY OF COPENHAGEN, published 2020).
Ends that are not written are not given here. * marks the point of attachment. C16 diacid = O=C(O)CCCCCCCCCCCCCCC(=O)*; Palmitoyl = CCCCCCCCCCCCCCCC(=O)*; Lauroyl = CCCCCCCCCCCC(=O)*

B1: AT318 [hGIP(3-30)NH2[Q29K]-C16diacid/29] (peptide)
peptide: EGTFISDYSIAMDKIHQQDFVNWLLAK(C16 diacid)K-NH2
modifications: N-terminus assumed
SMILES: CC[C@H](C)[C@H](NC(=O)[C@H](CO)NC(=O)[C@H](Cc1ccc(O)cc1)NC(=O)[C@H](CC(=O)O)NC(=O)[C@H](CO)NC(=O)[C@@H](NC(=O)[C@H](Cc1ccccc1)NC(=O)[C@@H](NC(=O)CNC(=O)[C@@H](N)CCC(=O)O)[C@@H](C)O)[C@@H](C)CC)C(=O)N[C@@H](C)C(=O)N[C@@H](CCSC)C(=O)N[C@@H](CC(=O)O)C(=O)N[C@@H](CCCCN)C(=O)N[C@H](C(=O)N[C@@H](Cc1c[nH]cn1)C(=O)N[C@@H](CCC(N)=O)C(=O)N[C@@H](CCC(N)=O)C(=O)N[C@@H](CC(=O)O)C(=O)N[C@@H](Cc1ccccc1)C(=O)N[C@H](C(=O)N[C@@H](CC(N)=O)C(=O)N[C@@H](Cc1c[nH]c2ccccc12)C(=O)N[C@@H](CC(C)C)C(=O)N[C@@H](CC(C)C)C(=O)N[C@@H](C)C(=O)N[C@@H](CCCCNC(=O)CCCCCCCCCCCCCCC(=O)O)C(=O)N[C@@H](CCCCN)C(N)=O)C(C)C)[C@@H](C)CC
B2: AT134 [hGIP(5-30)NH2[K16R; H18K; K30R]-16/18] (peptide)
peptide: TFISDYSIAMDRIK(Palmitoyl)QQDFVNWLLAQR-NH2
modifications: N-terminus assumed
SMILES: CCCCCCCCCCCCCCCC(=O)NCCCC[C@H](NC(=O)[C@@H](NC(=O)[C@H](CCCNC(=N)N)NC(=O)[C@H](CC(=O)O)NC(=O)[C@H](CCSC)NC(=O)[C@H](C)NC(=O)[C@@H](NC(=O)[C@H](CO)NC(=O)[C@H](Cc1ccc(O)cc1)NC(=O)[C@H](CC(=O)O)NC(=O)[C@H](CO)NC(=O)[C@@H](NC(=O)[C@H](Cc1ccccc1)NC(=O)[C@@H](N)[C@@H](C)O)[C@@H](C)CC)[C@@H](C)CC)[C@@H](C)CC)C(=O)N[C@@H](CCC(N)=O)C(=O)N[C@@H](CCC(N)=O)C(=O)N[C@@H](CC(=O)O)C(=O)N[C@@H](Cc1ccccc1)C(=O)N[C@H](C(=O)N[C@@H](CC(N)=O)C(=O)N[C@@H](Cc1c[nH]c2ccccc12)C(=O)N[C@@H](CC(C)C)C(=O)N[C@@H](CC(C)C)C(=O)N[C@@H](C)C(=O)N[C@@H](CCC(N)=O)C(=O)N[C@@H](CCCNC(=N)N)C(N)=O)C(C)C
B3: AT317 [hGIP(3-30)NH2[A28K]-C16diacid/28] (peptide)
peptide: EGTFISDYSIAMDKIHQQDFVNWLLK(C16 diacid)QK-NH2
modifications: N-terminus assumed
SMILES: CC[C@H](C)[C@H](NC(=O)[C@H](CO)NC(=O)[C@H](Cc1ccc(O)cc1)NC(=O)[C@H](CC(=O)O)NC(=O)[C@H](CO)NC(=O)[C@@H](NC(=O)[C@H](Cc1ccccc1)NC(=O)[C@@H](NC(=O)CNC(=O)[C@@H](N)CCC(=O)O)[C@@H](C)O)[C@@H](C)CC)C(=O)N[C@@H](C)C(=O)N[C@@H](CCSC)C(=O)N[C@@H](CC(=O)O)C(=O)N[C@@H](CCCCN)C(=O)N[C@H](C(=O)N[C@@H](Cc1c[nH]cn1)C(=O)N[C@@H](CCC(N)=O)C(=O)N[C@@H](CCC(N)=O)C(=O)N[C@@H](CC(=O)O)C(=O)N[C@@H](Cc1ccccc1)C(=O)N[C@H](C(=O)N[C@@H](CC(N)=O)C(=O)N[C@@H](Cc1c[nH]c2ccccc12)C(=O)N[C@@H](CC(C)C)C(=O)N[C@@H](CC(C)C)C(=O)N[C@@H](CCCCNC(=O)CCCCCCCCCCCCCCC(=O)O)C(=O)N[C@@H](CCC(N)=O)C(=O)N[C@@H](CCCCN)C(N)=O)C(C)C)[C@@H](C)CC
B4: AT145 [hGIP(5-30)NH2[H18K]-C16/18] (peptide)
peptide: TFISDYSIAMDKIK(Palmitoyl)QQDFVNWLLAQK-NH2
modifications: N-terminus assumed
SMILES: CCCCCCCCCCCCCCCC(=O)NCCCC[C@H](NC(=O)[C@@H](NC(=O)[C@H](CCCCN)NC(=O)[C@H](CC(=O)O)NC(=O)[C@H](CCSC)NC(=O)[C@H](C)NC(=O)[C@@H](NC(=O)[C@H](CO)NC(=O)[C@H](Cc1ccc(O)cc1)NC(=O)[C@H](CC(=O)O)NC(=O)[C@H](CO)NC(=O)[C@@H](NC(=O)[C@H](Cc1ccccc1)NC(=O)[C@@H](N)[C@@H](C)O)[C@@H](C)CC)[C@@H](C)CC)[C@@H](C)CC)C(=O)N[C@@H](CCC(N)=O)C(=O)N[C@@H](CCC(N)=O)C(=O)N[C@@H](CC(=O)O)C(=O)N[C@@H](Cc1ccccc1)C(=O)N[C@H](C(=O)N[C@@H](CC(N)=O)C(=O)N[C@@H](Cc1c[nH]c2ccccc12)C(=O)N[C@@H](CC(C)C)C(=O)N[C@@H](CC(C)C)C(=O)N[C@@H](C)C(=O)N[C@@H](CCC(N)=O)C(=O)N[C@@H](CCCCN)C(N)=O)C(C)C
B5: AT316 [hGIP(3-30)NH2[L27K]-C16diacid/27] (peptide)
peptide: EGTFISDYSIAMDKIHQQDFVNWLK(C16 diacid)AQK-NH2
modifications: N-terminus assumed
SMILES: CC[C@H](C)[C@H](NC(=O)[C@H](CO)NC(=O)[C@H](Cc1ccc(O)cc1)NC(=O)[C@H](CC(=O)O)NC(=O)[C@H](CO)NC(=O)[C@@H](NC(=O)[C@H](Cc1ccccc1)NC(=O)[C@@H](NC(=O)CNC(=O)[C@@H](N)CCC(=O)O)[C@@H](C)O)[C@@H](C)CC)C(=O)N[C@@H](C)C(=O)N[C@@H](CCSC)C(=O)N[C@@H](CC(=O)O)C(=O)N[C@@H](CCCCN)C(=O)N[C@H](C(=O)N[C@@H](Cc1c[nH]cn1)C(=O)N[C@@H](CCC(N)=O)C(=O)N[C@@H](CCC(N)=O)C(=O)N[C@@H](CC(=O)O)C(=O)N[C@@H](Cc1ccccc1)C(=O)N[C@H](C(=O)N[C@@H](CC(N)=O)C(=O)N[C@@H](Cc1c[nH]c2ccccc12)C(=O)N[C@@H](CC(C)C)C(=O)N[C@@H](CCCCNC(=O)CCCCCCCCCCCCCCC(=O)O)C(=O)N[C@@H](C)C(=O)N[C@@H](CCC(N)=O)C(=O)N[C@@H](CCCCN)C(N)=O)C(C)C)[C@@H](C)CC
B6: AT135 [hGIP(5-30)NH2[K16R; K30R]-C16/5] (peptide)
peptide: Palmitoyl-TFISDYSIAMDRIHQQDFVNWLLAQR-NH2
SMILES: CCCCCCCCCCCCCCCC(=O)N[C@H](C(=O)N[C@@H](Cc1ccccc1)C(=O)N[C@H](C(=O)N[C@@H](CO)C(=O)N[C@@H](CC(=O)O)C(=O)N[C@@H](Cc1ccc(O)cc1)C(=O)N[C@@H](CO)C(=O)N[C@H](C(=O)N[C@@H](C)C(=O)N[C@@H](CCSC)C(=O)N[C@@H](CC(=O)O)C(=O)N[C@@H](CCCNC(=N)N)C(=O)N[C@H](C(=O)N[C@@H](Cc1c[nH]cn1)C(=O)N[C@@H](CCC(N)=O)C(=O)N[C@@H](CCC(N)=O)C(=O)N[C@@H](CC(=O)O)C(=O)N[C@@H](Cc1ccccc1)C(=O)N[C@H](C(=O)N[C@@H](CC(N)=O)C(=O)N[C@@H](Cc1c[nH]c2ccccc12)C(=O)N[C@@H](CC(C)C)C(=O)N[C@@H](CC(C)C)C(=O)N[C@@H](C)C(=O)N[C@@H](CCC(N)=O)C(=O)N[C@@H](CCCNC(=N)N)C(N)=O)C(C)C)[C@@H](C)CC)[C@@H](C)CC)[C@@H](C)CC)[C@@H](C)O
B7: AT133 [hGIP(5-30)NH2[K16R; H18K; K30R]-C16/5] (peptide)
peptide: Palmitoyl-TFISDYSIAMDRIKQQDFVNWLLAQR-NH2
SMILES: CCCCCCCCCCCCCCCC(=O)N[C@H](C(=O)N[C@@H](Cc1ccccc1)C(=O)N[C@H](C(=O)N[C@@H](CO)C(=O)N[C@@H](CC(=O)O)C(=O)N[C@@H](Cc1ccc(O)cc1)C(=O)N[C@@H](CO)C(=O)N[C@H](C(=O)N[C@@H](C)C(=O)N[C@@H](CCSC)C(=O)N[C@@H](CC(=O)O)C(=O)N[C@@H](CCCNC(=N)N)C(=O)N[C@H](C(=O)N[C@@H](CCCCN)C(=O)N[C@@H](CCC(N)=O)C(=O)N[C@@H](CCC(N)=O)C(=O)N[C@@H](CC(=O)O)C(=O)N[C@@H](Cc1ccccc1)C(=O)N[C@H](C(=O)N[C@@H](CC(N)=O)C(=O)N[C@@H](Cc1c[nH]c2ccccc12)C(=O)N[C@@H](CC(C)C)C(=O)N[C@@H](CC(C)C)C(=O)N[C@@H](C)C(=O)N[C@@H](CCC(N)=O)C(=O)N[C@@H](CCCNC(=N)N)C(N)=O)C(C)C)[C@@H](C)CC)[C@@H](C)CC)[C@@H](C)CC)[C@@H](C)O

Target: T1, human GIP receptor (human, UniProt P48546 22-466)
T1 sequence (looked up): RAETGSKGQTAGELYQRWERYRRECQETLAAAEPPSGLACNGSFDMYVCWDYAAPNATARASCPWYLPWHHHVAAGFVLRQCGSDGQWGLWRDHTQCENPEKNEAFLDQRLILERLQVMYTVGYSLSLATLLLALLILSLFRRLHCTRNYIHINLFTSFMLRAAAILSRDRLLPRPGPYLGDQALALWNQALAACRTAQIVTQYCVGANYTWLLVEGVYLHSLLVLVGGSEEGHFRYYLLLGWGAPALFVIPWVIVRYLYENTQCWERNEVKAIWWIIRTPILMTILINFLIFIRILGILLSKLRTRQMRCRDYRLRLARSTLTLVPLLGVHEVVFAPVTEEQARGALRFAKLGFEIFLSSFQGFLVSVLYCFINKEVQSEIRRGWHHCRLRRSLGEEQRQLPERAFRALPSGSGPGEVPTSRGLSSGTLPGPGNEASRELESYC
Experiment: cell-based or functional assay

Binder | cAMP agonism, EC50 (log) | cAMP agonism, Emax | cAMP agonism, nM (EC50) | cAMP antagonism, log (IC50) | cAMP antagonism, nM (IC50)
B1 | -6.9 log M | 10.8% | 131 nM | -6.6 log M | 224 nM
EGTFISDYSIAMDKIHQQDFVNWLLAQK-NH2 [hGIP(3-30)NH2] | – | – | – | -7.2 log M | 65 nM
B2 | -7 log M | 11% | 35 nM | -7 log M | 93 nM
B3 | -7.2 log M | 21.8% | 62 nM | -6.6 log M | 228 nM
EGTFISDYSIAMDKIHQQDFVNWLLAQK(Lauroyl)-NH2 [AT103 [hGIP(3-30)NH2-C12/30]] | -5.3 log M | 7% | 4880 nM | -6.9 log M | 121 nM
Lauroyl-EGTFISDYSIAMDKIHQQDFVNWLLAQK-NH2 [AT101 [hGIP(3-30)NH2-C12/3]] | -9.1 log M | 62% | 0.7 nM | – | –
EGTFISDYSIAMDK(Lauroyl)IHQQDFVNWLLAQK-NH2 [AT102 [hGIP(3-30)NH2-C12/16]] | -9.1 log M | 66% | 0.7 nM | – | –
Palmitoyl-EGTFISDYSIAMDKIHQQDFVNWLLAQK-NH2 [AT104 [hGIP(3-30)NH2-C16/3]] | -8.6 log M | 81% | 2.4 nM | – | –
B4 | -7 log M | 16% | 33 nM | -7.2 log M | 66 nM
B5 | -6.5 log M | 6.2% | 294 nM | -6.2 log M | 649 nM
B6 | – | 0% | – | – | –
B7 | – | 0% | – | -5.4 log M | 3810 nM
